Measured values: patent publication US20200262877A1, “ION CHANNEL-BINDING PEPTIDES AND METHODS OF USE THEREOF” (priority 2017, published 2020)

Columns and labels:
[1] = biological target: T1, Cav2.1 (Homo sapiens, UniProt O00555); test: cell-based; conditions: 100% = no change, <100% = inhibition
T1 construct: host or cells: HEK293 or CHO
Method: (§1) This example describes a method for assaying ion channel activity in cells.
(§2) Peptides were screened in duplicate at final concentrations of 20 μM and 200 nM, as determined by amino acid analysis, and diluted into HEPES buffered physiological saline (HBPS). HEK293 or CHO cells from the American Type Culture Collection (ATCC) were transfected with the appropriate ion channel before use. HEK293 cells were grown in Dulbecco's Modified Eagle Medium/Nutrient Mixture F-12, and CHO cells were cultured in Ham's F-12 media. All cultures were supplemented with 10% fetal bovine serum, 100 U/ml penicillin G, 100 μg/ml streptomycin sulfate, and the appropriate selection antibiotics. Prior to use, cells were washed twice with Hank's Balanced Salt Solution, and treated with Accutase cell detachment solution (Sigma-Aldrich). Cells were then washed. Peptides and controls were incubated with cells for at least five minutes.
(§3) Percent inhibition was defined as: (1-(Ipeptide/Icontrol))×100%).
(§4) Percent values were calculated using the following formula: % activation=(IPeptide/Icontrol)×100%, where IPeptide is the current produced by co-application a peptide with agonist, and Icontrol refers to the current produced by stimulation in control. Control used for each ion channel is the reference compound matched to a particular channel, as illustrated in TABLE 10 below.

[2] = biological target: T2, Cav2.2 (Homo sapiens, UniProt Q00975); test: cell-based; conditions: 100% = no change, <100% = inhibition
T2 construct: host or cells: HEK293 or CHO
Method: as §1, §2, §3, §4

[3] = biological target: T3, Kv2.1 (Homo sapiens, UniProt Q14721); test: cell-based; conditions: 100% = no change, <100% = inhibition
T3 construct: host or cells: HEK293 or CHO
Method: as §1, §2, §3, §4

[4] = biological target: T4, NR2B (Homo sapiens, UniProt Q13224); test: Ion channel panel (IonWorks Barracuda): NR2B; type: cell-based; conditions: 100% = no change, <100% = inhibition
T4 construct: host or cells: HEK293 or CHO
Method: as §1, §2, §3, §4

[5] = biological target: T5, Nav1.7 (Homo sapiens, UniProt Q15858); test: cell-based; type: cell-based; conditions: 100% = no change; for Activity of Nav1.7 with peptide, expressed as a percentage of the reference compound: peptide at 0.2 μM; for Activity of Nav1.7 with peptide (percentage of the reference compound): peptide at 20 μM
T5 construct: host or cells: HEK293 or CHO
Method: as §1
as §2, with “Peptides were screened in duplicate at final concentrations of 20 μM and 200 nM, as determined by amino acid analysis, and diluted into HEPES buffered physiological saline (HBPS).” left out
as §3, §4

[6] = biological target: T6, TRPA1 (Homo sapiens, UniProt O75762); test: Ion channel panel (IonWorks Barracuda): TRPA1; type: cell-based; conditions: 100% = no change, <100% = inhibition
T6 construct: host or cells: HEK293 or CHO
Method: as §1, §2, §3, §4

[7] = biological target: T7, NR2A (Homo sapiens, UniProt Q12879); test: Ion channel panel (IonWorks Barracuda): NR2A; type: cell-based; conditions: 100% = no change, <100% = inhibition
T7 construct: host or cells: HEK293 or CHO
Method: as §1, §2, §3, §4

[8] = biological target: T8, α4β2 (Homo sapiens, UniProt P17787+P43681); test: Ion channel panel (IonWorks Barracuda): α4β2; type: cell-based; conditions: 100% = no change, <100% = inhibition
T8 construct: host or cells: HEK293 or CHO
Method: as §1, §2, §3, §4

[9] = biological target: hERG (Homo sapiens, UniProt Q12809); test: in vitro; conditions: 100% = no change, <100% = inhibition
Method: as §1, §2, §3, §4

[10] = biological target: Nav1.5 (Homo sapiens, UniProt Q14524); test: in vitro; conditions: 100% = no change; for Activity of Nav1.5 with peptide, expressed as a percentage of the reference compound: peptide at 0.2 μM; for Activity of Nav1.5 with peptide (percentage of the reference compound): peptide at 20 μM
Method: as §1, §2, §3, §4

[11] = biological target: T9, 5HT3a (Homo sapiens, UniProt P46098); test: Ion channel panel (IonWorks Barracuda): 5HT3a; type: cell-based
T9 construct: host or cells: HEK293 or CHO
T9 sequence (P46098 whole entry, looked up): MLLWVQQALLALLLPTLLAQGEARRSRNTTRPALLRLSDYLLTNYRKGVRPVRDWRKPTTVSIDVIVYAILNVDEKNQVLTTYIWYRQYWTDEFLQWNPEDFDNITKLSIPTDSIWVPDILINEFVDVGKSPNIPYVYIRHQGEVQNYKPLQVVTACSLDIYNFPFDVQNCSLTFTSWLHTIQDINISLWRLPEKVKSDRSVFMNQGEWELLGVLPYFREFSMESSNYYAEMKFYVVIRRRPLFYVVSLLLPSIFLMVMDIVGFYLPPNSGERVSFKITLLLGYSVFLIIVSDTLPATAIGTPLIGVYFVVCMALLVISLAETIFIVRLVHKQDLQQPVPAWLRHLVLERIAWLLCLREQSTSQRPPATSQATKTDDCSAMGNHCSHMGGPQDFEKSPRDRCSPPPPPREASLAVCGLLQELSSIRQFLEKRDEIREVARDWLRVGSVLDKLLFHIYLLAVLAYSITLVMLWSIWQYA
Method: as §1, §2, §3, §4

[12] = biological target: T10, TRPV1 (Homo sapiens, UniProt Q8NER1); test: Ion channel panel (IonWorks Barracuda): TRPV1; type: cell-based; conditions: 100% = no change, <100% = inhibition
T10 construct: host or cells: HEK293 or CHO
Method: as §1, §2, §3, §4

[13] = biological target: T11, Kir2.1 (Homo sapiens, UniProt P63252); test: Ion channel panel (IonWorks Barracuda): Kir2.1; type: cell-based; conditions: 100% = no change, <100% = inhibition
T11 construct: host or cells: HEK293 or CHO
Method: as §1, §2, §3, §4

[14] = test system: GABA; test: Ion channel panel (IonWorks Barracuda): GABA; type: cell-based; conditions: 100% = no change, <100% = inhibition
Method: as §1, §2, §3, §4

[15] = biological target: T12, Kv1.2 (Homo sapiens, UniProt P16389); test: cell-based; type: cell-based; conditions: 100% = no change, <100% = inhibition
T12 construct: host or cells: HEK293 or CHO
Method: as §1, §2, §3, §4

[16] = biological target: T13, Kv1.3 (Homo sapiens, UniProt P22001); test: cell-based; type: cell-based; conditions: 100% = no change, <100% = inhibition
T13 construct: host or cells: HEK293 or CHO
Method: as §1, §2, §3, §4

[17] = biological target: T14, Kv1.1 (Homo sapiens, UniProt Q09470); test: cell-based; type: cell-based; conditions: 100% = no change, <100% = inhibition
T14 construct: host or cells: HEK293 or CHO
Method: as §1, §2, §3, §4

[18] = biological target: T15, α3β4 (Homo sapiens, UniProt P30926+P32297); test: Ion channel panel (IonWorks Barracuda): α3β4; type: cell-based; conditions: 100% = no change, <100% = inhibition
T15 construct: host or cells: HEK293 or CHO
Method: as §1, §2, §3, §4

[19] = first of two Nav1.7 columns (probably TP1)
[20] = second of two Nav1.7 columns (probably TP2)
[21] = first of two Nav1.5 columns (probably TP1)
[22] = second of two Nav1.5 columns (probably TP2)

Nav1.5, sequence (Q14524 whole entry): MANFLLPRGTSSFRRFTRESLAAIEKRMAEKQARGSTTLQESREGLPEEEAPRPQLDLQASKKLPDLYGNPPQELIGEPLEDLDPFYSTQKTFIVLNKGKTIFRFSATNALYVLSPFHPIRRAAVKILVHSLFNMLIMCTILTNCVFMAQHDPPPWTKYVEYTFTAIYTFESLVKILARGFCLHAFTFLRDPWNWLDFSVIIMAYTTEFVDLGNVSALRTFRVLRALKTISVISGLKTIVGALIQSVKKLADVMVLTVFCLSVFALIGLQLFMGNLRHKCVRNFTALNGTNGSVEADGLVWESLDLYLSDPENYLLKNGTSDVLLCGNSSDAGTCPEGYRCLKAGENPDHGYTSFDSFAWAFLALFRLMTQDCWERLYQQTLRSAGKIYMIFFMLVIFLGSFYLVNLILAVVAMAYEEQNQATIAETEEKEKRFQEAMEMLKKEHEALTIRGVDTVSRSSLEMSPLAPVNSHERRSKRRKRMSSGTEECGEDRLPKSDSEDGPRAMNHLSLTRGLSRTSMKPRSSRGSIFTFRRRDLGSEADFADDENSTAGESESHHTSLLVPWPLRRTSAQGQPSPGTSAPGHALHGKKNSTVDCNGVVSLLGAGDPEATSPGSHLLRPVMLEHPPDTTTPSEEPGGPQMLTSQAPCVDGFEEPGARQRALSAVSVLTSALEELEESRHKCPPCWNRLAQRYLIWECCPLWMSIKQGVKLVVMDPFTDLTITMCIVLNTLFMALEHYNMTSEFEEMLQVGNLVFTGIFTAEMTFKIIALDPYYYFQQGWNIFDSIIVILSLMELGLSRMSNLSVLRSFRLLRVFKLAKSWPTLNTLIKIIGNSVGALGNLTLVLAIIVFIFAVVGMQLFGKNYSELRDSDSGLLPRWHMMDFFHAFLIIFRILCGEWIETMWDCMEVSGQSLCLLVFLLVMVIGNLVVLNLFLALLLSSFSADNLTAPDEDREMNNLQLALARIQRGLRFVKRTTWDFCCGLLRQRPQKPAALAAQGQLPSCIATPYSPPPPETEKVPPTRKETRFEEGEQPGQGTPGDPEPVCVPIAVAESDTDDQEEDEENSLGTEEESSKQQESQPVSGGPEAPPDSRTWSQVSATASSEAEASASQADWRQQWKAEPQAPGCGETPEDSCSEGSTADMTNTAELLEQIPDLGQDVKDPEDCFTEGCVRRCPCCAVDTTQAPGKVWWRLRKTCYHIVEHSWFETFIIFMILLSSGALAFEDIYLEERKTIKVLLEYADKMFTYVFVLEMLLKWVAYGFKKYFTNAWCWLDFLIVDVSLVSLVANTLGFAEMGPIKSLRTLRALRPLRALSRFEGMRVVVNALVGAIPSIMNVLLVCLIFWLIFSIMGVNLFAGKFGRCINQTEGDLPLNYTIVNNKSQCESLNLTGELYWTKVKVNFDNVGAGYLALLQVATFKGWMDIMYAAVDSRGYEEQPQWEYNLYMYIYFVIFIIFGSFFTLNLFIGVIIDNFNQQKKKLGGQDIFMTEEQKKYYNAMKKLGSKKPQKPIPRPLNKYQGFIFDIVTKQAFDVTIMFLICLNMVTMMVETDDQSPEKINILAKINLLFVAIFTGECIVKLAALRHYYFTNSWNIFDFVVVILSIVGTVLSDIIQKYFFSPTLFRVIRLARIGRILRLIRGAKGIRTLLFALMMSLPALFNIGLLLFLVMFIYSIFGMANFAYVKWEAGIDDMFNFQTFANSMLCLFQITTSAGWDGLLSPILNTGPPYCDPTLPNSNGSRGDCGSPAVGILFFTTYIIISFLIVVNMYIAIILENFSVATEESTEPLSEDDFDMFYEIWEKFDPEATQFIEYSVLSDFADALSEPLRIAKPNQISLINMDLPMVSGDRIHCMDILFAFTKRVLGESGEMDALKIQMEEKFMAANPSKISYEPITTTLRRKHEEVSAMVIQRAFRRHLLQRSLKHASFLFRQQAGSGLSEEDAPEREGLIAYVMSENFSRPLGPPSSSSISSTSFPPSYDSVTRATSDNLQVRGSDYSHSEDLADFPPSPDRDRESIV
T5 sequence (Q15858 whole entry): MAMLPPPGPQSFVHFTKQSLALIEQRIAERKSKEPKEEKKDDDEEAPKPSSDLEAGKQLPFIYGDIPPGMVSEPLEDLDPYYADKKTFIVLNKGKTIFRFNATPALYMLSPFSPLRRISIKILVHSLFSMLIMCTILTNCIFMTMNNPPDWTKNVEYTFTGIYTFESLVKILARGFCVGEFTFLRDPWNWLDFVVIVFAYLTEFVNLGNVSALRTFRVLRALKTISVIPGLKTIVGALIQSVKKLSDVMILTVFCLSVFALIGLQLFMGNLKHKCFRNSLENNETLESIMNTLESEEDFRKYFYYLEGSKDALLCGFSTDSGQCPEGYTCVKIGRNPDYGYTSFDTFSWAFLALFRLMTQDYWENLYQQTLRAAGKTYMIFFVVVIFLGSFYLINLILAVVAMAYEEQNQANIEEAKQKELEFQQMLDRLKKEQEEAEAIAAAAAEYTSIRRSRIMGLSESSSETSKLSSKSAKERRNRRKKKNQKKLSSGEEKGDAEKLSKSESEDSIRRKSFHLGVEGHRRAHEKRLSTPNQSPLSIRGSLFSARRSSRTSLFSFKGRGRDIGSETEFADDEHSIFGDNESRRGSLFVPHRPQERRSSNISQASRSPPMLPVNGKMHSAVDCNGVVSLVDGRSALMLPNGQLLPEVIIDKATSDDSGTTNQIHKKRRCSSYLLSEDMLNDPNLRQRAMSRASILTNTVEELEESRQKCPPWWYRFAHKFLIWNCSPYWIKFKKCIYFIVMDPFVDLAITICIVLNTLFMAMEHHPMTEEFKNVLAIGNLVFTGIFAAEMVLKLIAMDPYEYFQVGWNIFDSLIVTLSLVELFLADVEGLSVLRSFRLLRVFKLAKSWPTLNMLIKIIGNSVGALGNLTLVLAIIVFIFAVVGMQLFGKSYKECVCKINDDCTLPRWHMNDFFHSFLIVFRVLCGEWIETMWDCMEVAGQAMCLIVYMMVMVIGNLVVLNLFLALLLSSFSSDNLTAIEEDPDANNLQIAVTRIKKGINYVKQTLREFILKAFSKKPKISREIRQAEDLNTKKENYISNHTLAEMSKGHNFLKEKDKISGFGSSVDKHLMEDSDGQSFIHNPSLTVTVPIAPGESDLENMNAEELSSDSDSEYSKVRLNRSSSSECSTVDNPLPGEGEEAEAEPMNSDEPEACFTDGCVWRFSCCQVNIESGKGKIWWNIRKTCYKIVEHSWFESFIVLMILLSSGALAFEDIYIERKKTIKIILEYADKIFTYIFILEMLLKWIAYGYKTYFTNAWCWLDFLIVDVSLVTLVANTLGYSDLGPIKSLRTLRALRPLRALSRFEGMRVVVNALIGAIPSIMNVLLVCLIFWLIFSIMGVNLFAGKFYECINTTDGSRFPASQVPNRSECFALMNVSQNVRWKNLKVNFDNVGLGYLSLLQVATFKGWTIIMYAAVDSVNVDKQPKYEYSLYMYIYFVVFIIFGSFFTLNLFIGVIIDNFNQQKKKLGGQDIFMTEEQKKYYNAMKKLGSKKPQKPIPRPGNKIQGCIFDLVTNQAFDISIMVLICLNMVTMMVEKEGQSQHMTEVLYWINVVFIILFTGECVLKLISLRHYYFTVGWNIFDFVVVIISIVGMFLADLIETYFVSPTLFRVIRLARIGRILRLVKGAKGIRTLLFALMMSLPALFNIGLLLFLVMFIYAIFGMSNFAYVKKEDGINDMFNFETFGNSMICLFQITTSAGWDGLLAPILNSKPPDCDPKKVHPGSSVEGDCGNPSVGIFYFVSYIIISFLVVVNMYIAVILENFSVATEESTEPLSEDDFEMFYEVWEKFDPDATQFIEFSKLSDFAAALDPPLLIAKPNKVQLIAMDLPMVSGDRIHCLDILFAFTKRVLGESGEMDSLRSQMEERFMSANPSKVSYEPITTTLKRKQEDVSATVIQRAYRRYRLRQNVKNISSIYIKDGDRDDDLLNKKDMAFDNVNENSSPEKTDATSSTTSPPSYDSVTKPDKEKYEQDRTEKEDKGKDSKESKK
T15 sequence (P30926 22-498): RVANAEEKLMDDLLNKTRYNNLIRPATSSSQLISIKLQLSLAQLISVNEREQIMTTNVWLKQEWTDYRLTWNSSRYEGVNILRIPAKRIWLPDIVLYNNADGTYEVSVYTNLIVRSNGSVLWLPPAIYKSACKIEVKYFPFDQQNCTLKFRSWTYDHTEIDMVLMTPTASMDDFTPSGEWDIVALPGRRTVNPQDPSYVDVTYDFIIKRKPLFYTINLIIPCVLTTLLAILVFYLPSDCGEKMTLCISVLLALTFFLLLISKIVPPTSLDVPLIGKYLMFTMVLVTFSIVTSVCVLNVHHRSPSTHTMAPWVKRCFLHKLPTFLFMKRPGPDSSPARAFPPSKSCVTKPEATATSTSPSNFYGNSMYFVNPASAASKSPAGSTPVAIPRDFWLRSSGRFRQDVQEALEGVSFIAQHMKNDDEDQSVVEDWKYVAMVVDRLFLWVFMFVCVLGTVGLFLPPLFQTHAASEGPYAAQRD
T15 sequence (P32297 32-505): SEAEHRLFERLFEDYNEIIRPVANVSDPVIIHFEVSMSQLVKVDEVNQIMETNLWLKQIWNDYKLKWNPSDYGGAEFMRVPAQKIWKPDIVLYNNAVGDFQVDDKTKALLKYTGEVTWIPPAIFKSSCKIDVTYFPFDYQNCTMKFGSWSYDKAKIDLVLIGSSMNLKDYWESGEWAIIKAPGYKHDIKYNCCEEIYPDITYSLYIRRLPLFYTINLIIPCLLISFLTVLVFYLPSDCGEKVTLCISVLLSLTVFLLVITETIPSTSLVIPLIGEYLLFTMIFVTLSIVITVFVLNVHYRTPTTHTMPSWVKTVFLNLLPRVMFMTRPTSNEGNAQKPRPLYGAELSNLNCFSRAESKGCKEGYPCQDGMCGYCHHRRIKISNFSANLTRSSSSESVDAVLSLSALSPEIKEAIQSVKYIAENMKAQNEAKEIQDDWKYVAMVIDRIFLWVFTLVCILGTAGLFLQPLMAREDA

Substance: 4 (GSSCAKPRENCNRMNILCCRGECVCPTFGDCFCYGD) [compound 4]
- Activity of Cav2.1 with peptide, expressed as a percentage of the reference compound ([1]; peptide at 0.2 μM): 111%
- Activity of Cav2.1 with peptide (percentage of the reference compound) ([1]; peptide at 20 μM): 130%
- Activity of Cav2.2 with peptide, expressed as a percentage of the reference compound ([2]; peptide at 0.2 μM): 105%
- Activity of Cav2.2 with peptide (percentage of the reference compound) ([2]; peptide at 20 μM): 101%
- Activity of Kv2.1 with peptide, expressed as a percentage of the reference compound ([3]; peptide at 0.2 μM): 112%
- Activity of Kv2.1 with peptide (percentage of the reference compound) ([3]; peptide at 20 μM): 102%
- Activity of NR2B with peptide, expressed as a percentage of the reference compound ([4]; peptide at 0.2 μM): 117%
- Activity of NR2B with peptide (percentage of the reference compound) ([4]; peptide at 20 μM): 93%
- Activity of Nav1.7 with peptide, expressed as a percentage of the reference compound [5, 19]: 95%
- Activity of Nav1.7 with peptide, expressed as a percentage of the reference compound [5, 20]: 93%
- Activity of Nav1.7 with peptide (percentage of the reference compound) [5, 19]: 96%
- Activity of Nav1.7 with peptide (percentage of the reference compound) [5, 20]: 104%
- Activity of TRPA1 with peptide, expressed as a percentage of the reference compound ([6]; peptide at 0.2 μM): 135%
- Activity of TRPA1 with peptide (percentage of the reference compound) ([6]; peptide at 20 μM): 119%
- Activity of NR2A with peptide, expressed as a percentage of the reference compound ([7]; peptide at 0.2 μM): 106%
- Activity of NR2A with peptide (percentage of the reference compound) ([7]; peptide at 20 μM): 90%
- Activity of a4b2 with peptide, expressed as a percentage of the reference compound ([8]; peptide at 0.2 μM): 86%
- Activity of a4b2 with peptide (percentage of the reference compound) ([8]; peptide at 20 μM): 81%
- Activity of hERG with peptide, expressed as a percentage of the reference compound ([9]; peptide at 0.2 μM): 110%
- Activity of hERG with peptide (percentage of the reference compound) ([9]; peptide at 20 μM): 80%
- Activity of Nav1.5 with peptide, expressed as a percentage of the reference compound [10, 21]: 117%
- Activity of Nav1.5 with peptide, expressed as a percentage of the reference compound [10, 22]: 118%
- Activity of Nav1.5 with peptide (percentage of the reference compound) [10, 21]: 98%
- Activity of Nav1.5 with peptide (percentage of the reference compound) [10, 22]: 101%
- Activity of 5HT3a with peptide (percentage of the reference compound) [11]: 76%
- Activity of 5HT3a with peptide, expressed as a percentage of the reference compound [11]: 103%
- Activity of TRPV1 with peptide, expressed as a percentage of the reference compound ([12]; peptide at 0.2 μM): 110%
- Activity of TRPV1 with peptide (percentage of the reference compound) ([12]; peptide at 20 μM): 98%
- Activity of Kir2.1 with peptide, expressed as a percentage of the reference compound ([13]; peptide at 0.2 μM): 109%
- Activity of Kir2.1 with peptide (percentage of the reference compound) ([13]; peptide at 20 μM): 90%
- Activity of GABA with peptide, expressed as a percentage of the reference compound ([14]; peptide at 0.2 μM): 121%
- Activity of GABA with peptide (percentage of the reference compound) ([14]; peptide at 20 μM): 108%
- Activity of Kv1.2 with peptide, expressed as a percentage of the reference compound ([15]; peptide at 0.2 μM): 90%
- Activity of Kv1.2 with peptide (percentage of the reference compound) ([15]; peptide at 20 μM): 45%
- Activity of Kv1.3 with peptide, expressed as a percentage of the reference compound ([16]; peptide at 0.2 μM): 109%
- Activity of Kv1.3 with peptide (percentage of the reference compound) ([16]; peptide at 20 μM): 87%
- Activity of Kv1.1 with peptide, expressed as a percentage of the reference compound ([17]; peptide at 0.2 μM): 106%
- Activity of Kv1.1 with peptide (percentage of the reference compound) ([17]; peptide at 20 μM): 91%
- Activity of a3b4 with peptide, expressed as a percentage of the reference compound ([18]; peptide at 0.2 μM): 107%
- Activity of a3b4 with peptide (percentage of the reference compound) ([18]; peptide at 20 μM): 97%
